Laboratory results taken from patent US20240024520A1 (UCB, published 2024).
Values joined by “and” are separate entries in the source; they are usually repeats but may differ in a detail not shown here. Equal values may be shown once. Read-outs that look alike come from different tables or passages of the source.

Assays:
[1] = target: T1, human complement component C5 (human, UniProt P01031 19-673; P01031 678-1676); assay: cell-based or functional assay
[2] = target: T1, human complement component C5; assay: cell-based or functional assay; remark: listed apart in the source
[3] = target: T1, human complement component C5; assay: cell-based or functional assay; remark: listed apart in the source
rat C5 = target: T2, rat C5 (Rattus norvegicus (rat), UniProt P08650 19-1681, limits assumed); assay: SPR multi-cycle kinetics, rat C5 immobilised
T2 construct: also called C5 protein from Rattus norvegicus (rat)

[4] = target: T1, human complement component C5; assay: SPR multi-cycle kinetics, human C5 immobilised, mean of n=3
[5] = target: T1, human complement component C5; assay: cell-based or functional assay; remark: listed apart in the source
[6] = target: T1, human complement component C5; assay: cell-based or functional assay; remark: listed apart in the source
[7] = target: T1, human complement component C5; assay: cell-based or functional assay; remark: listed apart in the source
[8] = target: T1, human complement component C5
[9] = target: T1, human complement component C5; remark: listed apart in the source
[10] = target: T1, human complement component C5; assay: cell-based or functional assay; remark: listed apart in the source
[11] = target: T3, human complement component C3 (human, UniProt P01024 23-667; P01024 672-1663); assay: counter screen
T3 construct: also called biotinylated C3

ovalbumin = target: T4, ovalbumin (UniProt P01012 2-386); assay: counter screen
T4 sequence (looked up): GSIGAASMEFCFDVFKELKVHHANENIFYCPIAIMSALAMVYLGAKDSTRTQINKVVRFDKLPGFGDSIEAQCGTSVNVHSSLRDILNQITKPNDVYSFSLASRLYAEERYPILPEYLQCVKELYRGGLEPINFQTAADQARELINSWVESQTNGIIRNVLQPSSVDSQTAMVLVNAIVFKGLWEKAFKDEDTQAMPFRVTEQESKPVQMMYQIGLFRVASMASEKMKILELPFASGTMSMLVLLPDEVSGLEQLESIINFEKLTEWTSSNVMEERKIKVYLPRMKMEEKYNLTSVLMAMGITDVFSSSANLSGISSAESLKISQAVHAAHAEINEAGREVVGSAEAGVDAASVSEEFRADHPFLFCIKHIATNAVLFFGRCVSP

[12] = target: T1, human complement component C5; assay: SPR single-cycle kinetics
mouse C5 = target: T5, mouse C5 (mouse, UniProt P06684 19-674; P06684 679-1680); assay: SPR single-cycle kinetics
T5 construct: mature; also called mouse C5 protein

[13] = target: T1, human complement component C5; assay: cell-based or functional assay; remark: listed apart in the source
[14] = target: T3, human complement component C3; assay: cell-based or functional assay
[15] = target: T3, human complement component C3; assay: SPR (Biacore), C3, mean of n=3
[16] = target: T1, human complement component C5; assay: SPR (Biacore), C5
[17] = target: T3, human complement component C3; assay: cell-based or functional assay; remark: listed apart in the source

T3 sequence (P01024 23-667 limits assumed, chain 1 of 2): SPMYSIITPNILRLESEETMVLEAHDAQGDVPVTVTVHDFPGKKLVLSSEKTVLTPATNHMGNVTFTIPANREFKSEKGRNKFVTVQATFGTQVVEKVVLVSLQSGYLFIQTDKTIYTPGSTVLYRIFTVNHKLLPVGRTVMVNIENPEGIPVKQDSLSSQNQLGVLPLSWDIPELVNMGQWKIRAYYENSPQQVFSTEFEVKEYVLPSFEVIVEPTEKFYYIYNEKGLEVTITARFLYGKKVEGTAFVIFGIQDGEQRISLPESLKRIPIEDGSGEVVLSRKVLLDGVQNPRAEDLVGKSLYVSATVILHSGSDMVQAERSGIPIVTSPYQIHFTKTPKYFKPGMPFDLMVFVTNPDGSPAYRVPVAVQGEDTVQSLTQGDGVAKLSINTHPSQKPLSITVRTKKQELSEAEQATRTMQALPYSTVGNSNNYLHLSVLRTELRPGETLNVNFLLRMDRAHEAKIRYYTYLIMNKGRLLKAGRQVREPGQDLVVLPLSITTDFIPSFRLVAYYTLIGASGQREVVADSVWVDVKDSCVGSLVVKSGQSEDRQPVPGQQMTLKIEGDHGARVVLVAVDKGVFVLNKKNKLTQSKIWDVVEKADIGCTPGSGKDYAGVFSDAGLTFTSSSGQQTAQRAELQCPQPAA
T3 sequence (P01024 672-1663 limits assumed, chain 2 of 2): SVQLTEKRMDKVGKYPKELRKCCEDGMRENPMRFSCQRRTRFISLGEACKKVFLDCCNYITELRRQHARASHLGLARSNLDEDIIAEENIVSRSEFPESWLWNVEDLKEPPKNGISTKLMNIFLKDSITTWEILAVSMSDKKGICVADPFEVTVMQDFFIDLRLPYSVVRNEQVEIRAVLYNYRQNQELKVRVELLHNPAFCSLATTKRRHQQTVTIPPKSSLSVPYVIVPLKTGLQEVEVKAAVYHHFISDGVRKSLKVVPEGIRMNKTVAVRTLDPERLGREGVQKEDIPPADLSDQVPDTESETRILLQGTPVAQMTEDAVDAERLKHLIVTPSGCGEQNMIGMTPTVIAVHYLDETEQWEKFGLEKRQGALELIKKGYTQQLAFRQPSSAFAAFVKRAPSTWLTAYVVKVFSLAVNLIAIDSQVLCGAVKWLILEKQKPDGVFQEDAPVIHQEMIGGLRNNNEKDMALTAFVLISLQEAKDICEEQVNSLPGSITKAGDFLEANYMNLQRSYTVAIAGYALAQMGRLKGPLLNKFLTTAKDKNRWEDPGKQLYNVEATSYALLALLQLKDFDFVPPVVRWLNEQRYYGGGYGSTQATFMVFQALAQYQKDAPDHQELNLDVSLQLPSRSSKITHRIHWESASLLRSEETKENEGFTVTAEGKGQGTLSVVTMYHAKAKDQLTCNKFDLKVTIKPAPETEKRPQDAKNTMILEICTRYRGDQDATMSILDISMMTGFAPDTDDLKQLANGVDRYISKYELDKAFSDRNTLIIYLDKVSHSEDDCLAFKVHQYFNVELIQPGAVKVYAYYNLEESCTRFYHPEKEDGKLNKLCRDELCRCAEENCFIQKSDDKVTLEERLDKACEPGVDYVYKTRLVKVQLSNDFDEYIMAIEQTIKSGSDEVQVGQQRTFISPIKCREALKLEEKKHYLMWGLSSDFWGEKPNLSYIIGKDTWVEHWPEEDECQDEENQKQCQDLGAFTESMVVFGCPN
T1 sequence (P01031 19-673 limits assumed, chain 1 of 2): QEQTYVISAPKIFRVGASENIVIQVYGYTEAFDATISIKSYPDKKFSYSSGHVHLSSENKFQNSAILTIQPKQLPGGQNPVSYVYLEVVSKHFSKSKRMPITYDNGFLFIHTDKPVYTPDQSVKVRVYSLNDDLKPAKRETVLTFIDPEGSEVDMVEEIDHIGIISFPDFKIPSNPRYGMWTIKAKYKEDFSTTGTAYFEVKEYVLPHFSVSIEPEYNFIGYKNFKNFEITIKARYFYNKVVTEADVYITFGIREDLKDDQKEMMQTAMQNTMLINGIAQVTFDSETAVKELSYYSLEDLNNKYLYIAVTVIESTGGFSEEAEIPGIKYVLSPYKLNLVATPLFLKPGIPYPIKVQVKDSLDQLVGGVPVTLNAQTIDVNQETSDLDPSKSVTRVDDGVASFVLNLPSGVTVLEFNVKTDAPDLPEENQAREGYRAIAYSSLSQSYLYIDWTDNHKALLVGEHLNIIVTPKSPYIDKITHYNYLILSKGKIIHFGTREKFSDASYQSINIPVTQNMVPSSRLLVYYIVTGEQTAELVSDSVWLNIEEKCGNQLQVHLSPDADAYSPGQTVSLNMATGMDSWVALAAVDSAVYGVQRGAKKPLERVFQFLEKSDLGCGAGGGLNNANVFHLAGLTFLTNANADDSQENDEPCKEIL
T1 sequence (P01031 678-1676 limits assumed, chain 2 of 2): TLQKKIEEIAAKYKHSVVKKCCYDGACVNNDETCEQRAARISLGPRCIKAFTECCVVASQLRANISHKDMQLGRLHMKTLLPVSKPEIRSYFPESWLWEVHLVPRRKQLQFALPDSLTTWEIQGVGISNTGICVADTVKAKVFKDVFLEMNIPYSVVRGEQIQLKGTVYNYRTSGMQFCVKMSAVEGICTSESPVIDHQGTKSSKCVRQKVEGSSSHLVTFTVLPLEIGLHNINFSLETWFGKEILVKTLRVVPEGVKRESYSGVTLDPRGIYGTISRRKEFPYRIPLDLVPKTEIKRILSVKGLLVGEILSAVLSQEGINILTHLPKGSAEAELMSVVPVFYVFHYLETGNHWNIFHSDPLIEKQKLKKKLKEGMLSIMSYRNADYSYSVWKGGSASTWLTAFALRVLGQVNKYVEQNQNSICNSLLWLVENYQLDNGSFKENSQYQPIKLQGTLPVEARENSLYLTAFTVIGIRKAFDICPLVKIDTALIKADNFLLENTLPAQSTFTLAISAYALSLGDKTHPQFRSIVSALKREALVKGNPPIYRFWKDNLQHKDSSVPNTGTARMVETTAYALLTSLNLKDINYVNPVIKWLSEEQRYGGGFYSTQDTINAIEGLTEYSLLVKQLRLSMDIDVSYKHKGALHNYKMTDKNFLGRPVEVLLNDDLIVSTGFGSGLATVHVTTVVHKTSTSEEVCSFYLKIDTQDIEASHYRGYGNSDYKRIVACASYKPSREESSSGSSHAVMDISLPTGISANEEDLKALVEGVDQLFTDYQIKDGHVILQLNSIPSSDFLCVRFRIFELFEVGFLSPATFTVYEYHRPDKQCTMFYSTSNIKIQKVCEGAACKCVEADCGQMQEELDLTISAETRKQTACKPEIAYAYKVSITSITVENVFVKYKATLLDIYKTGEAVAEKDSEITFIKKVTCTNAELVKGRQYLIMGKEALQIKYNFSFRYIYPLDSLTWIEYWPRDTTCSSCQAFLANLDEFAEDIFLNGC
T5 sequence (P06684 19-674 limits assumed, chain 1 of 2): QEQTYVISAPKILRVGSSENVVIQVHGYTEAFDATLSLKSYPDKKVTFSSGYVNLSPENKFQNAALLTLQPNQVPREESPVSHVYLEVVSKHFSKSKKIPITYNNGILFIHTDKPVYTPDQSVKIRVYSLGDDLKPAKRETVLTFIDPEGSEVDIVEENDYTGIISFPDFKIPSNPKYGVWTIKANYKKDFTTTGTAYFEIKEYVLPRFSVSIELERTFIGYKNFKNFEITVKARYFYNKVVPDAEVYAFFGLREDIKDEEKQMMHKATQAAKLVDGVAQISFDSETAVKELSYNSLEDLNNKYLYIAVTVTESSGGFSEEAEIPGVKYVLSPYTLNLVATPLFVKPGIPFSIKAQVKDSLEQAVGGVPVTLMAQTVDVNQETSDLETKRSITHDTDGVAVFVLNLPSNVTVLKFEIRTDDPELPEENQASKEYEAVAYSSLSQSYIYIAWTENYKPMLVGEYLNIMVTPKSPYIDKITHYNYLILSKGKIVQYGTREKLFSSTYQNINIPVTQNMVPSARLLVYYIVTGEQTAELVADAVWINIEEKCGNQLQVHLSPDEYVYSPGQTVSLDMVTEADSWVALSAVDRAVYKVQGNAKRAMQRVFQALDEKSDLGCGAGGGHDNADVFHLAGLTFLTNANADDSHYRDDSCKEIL
T5 sequence (P06684 679-1680 limits assumed, chain 2 of 2): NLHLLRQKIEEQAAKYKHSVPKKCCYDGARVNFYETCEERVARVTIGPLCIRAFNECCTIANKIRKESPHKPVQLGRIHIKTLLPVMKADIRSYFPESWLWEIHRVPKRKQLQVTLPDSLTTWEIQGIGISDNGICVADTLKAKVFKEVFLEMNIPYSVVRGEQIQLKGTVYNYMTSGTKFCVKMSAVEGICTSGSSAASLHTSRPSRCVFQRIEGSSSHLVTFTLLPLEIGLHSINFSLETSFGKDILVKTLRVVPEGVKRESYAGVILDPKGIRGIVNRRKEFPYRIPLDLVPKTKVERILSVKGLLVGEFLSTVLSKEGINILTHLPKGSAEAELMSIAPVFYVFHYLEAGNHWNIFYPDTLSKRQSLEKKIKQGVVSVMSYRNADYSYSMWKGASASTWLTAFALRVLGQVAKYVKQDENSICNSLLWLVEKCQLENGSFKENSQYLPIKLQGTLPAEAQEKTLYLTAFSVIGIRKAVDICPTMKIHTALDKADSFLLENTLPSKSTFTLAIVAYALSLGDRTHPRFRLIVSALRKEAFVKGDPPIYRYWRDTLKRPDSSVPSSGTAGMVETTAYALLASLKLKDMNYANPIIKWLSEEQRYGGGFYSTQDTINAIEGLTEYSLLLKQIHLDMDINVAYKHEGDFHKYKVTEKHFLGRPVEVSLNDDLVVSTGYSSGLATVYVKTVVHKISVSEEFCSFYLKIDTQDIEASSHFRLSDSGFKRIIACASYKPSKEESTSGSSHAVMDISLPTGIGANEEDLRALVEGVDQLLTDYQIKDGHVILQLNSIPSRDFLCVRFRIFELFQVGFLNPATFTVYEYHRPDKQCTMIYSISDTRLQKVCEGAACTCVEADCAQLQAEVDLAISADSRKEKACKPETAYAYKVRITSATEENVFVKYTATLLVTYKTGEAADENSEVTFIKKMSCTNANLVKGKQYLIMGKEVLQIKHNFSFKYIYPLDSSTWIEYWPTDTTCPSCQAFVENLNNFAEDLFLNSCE

B1: K57chemFE knob domain peptide (peptide)
peptide: GCPPGYKSGVDCSPGSECKWGCYAVDGRRYGGYGADSGVGS
[1]
  alternative pathway complement ELISA (C5b deposition); IC50 (read off the curve): ~90 nM
[2]
  classical pathway complement ELISA (C5b deposition); IC50 (read off the curve): ~20 nM
[3]
  classical pathway haemolysis assay; IC50 (read off the curve): ~20 nM
Rat C5
  binding result: no binding
[4]
  Kd: 2.28 nM
  koff: 0.000579 s⁻¹
  kon: 260000 M⁻¹ s⁻¹

B2: K57 knob domain peptide cleaved from the 645 Fab (peptide)
peptide: GSSGCPPGYKSGVDCSPGSECKWGCYAVDGRRYGGYGADSGVENLYFQ
notes: Recombinant, cut out by TEV protease
[5]
  Inhibition of alternative pathway mediated bacterial lysis, average Emax: 122%
  Inhibition of alternative pathway mediated bacterial lysis, geomean IC50: 1020 nM
[6]
  Inhibition of classical pathway mediated bacterial lysis, geomean IC50: 115 nM
[7]
  Inhibition of classical pathway mediated C5a release, geomean IC50: 4 nM
[8]
  Kd: 1.4 nM
  koff: 0.000408 s⁻¹
  kon: 298000 M⁻¹ s⁻¹
[9]
  IC50: 4 nM and 3.2 nM and 3.5 nM and 3.6 nM
  Ki: 1.8 nM
[10]
  Inhibition of alternative pathway mediated C5a release, average Emax: 97.8%
  Inhibition of alternative pathway mediated C5a release, geomean IC50: 26.6 nM
[11]
  binding result: no binding
ovalbumin
  binding result: no binding
[12]
  Kd: < 40 nM
Mouse C5
  binding result: no binding
[13]
  AP mediated bacterial killing assay, IC50: 1220 nM

B3: hC3nb1 VHH with C-terminal single-chain Fc tag (VHH, not shown: a dimerising Fc or GST)
VHH: QVQLVETGGGLVQAGGSLRLSCAASGSIFSLNAMGWFRQAPGKEREFVATINRSGGRTYYADSVKGRFTISRDNGKNMVYLQMHSLKPEDTAIYYCAAGTGWSPQTDNEYNYWGQGTQVTVSS
notes: also called hC3Nb1 WT
[14]
  alternative pathway C5b neoepitope ELISA; IC50 (read off the curve): ~100 nM
[15]
  Kd: 0.163 nM
[16]
  binding result: no binding
[17]
  classical pathway C5b neoepitope ELISA; IC50 (read off the curve): ~10 nM
